Experiment: yeast display, Sf9 membrane polyspecificity reagent, FACS + sequencing; frameworks hold sequencing errors
In short: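 Using colony PCR, genes from sorted yeast display clones were amplified, then sequenced on MiSeq at 2 × 250 and filtered by CDR length. The clones had been stained with 10% biotinylated, detergent-solubilized Sf9 membrane reagent for 1 hour at 4 °C and sorted by FACS into low and high (top ~1%) gates on anti-HA and streptavidin fluorescence. Polyreactivity labels come from the gate of origin.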

Sequence	polyreactivity (PSR sort gate)
QVQLQESGGGLVQAGGSLRLSCAASGYISWYSEMGWYRQAPGKEREFVATITCGTTTNYAVSVKGRFTISRDNAKNTVYLQKNSLKPEDTAVYYCAVHDARHYEFDYWGQGTQVTVSS	high polyreactivity
QVQLVESGGRLVQAGGRLRLSCDASGYIISSYVMGWYRQAHGKDKELVAAINRRGGSTYYADSVKGRFTISRDNAKNTVYLQMNSLKPEDTAVYYCAADGLSGYGSGGYYGMGYWGQGTQVTVSS	high polyreactivity
QVQLVESGGGLVQAGGSLRLICAASGYTFSYYAMGWYRQAPGKERELVAAINYSGGRTYYADSVKGRFTISRDNAKNTVYLQMNSLKPDDTAVYYCAAYTRNGDYDYWGQGTQVTVSS	high polyreactivity
QVQLVESCGGLVQAGGSLRLSCAASGRTFNSYAIGWYRNAPGKERELVAAISWIGGSTYYADSVKGRFTISRDNAKNTVYLQMNSLKPEDTAVYYCAADSYRFYSGYYYWGQGTQVTVSS	low polyreactivity
QVQLGESGGGLVQAGGSLRLSCAASGFSFWYYPMGWYRQAPGKERELVASIRYSGDSTSYADSVKGRFTISRDNAKNNVYFQMNSLKAEDTEVYYSAAVRYWYASYYTYEYWGQGTQVSVSS	high polyreactivity
QVQLVESGGGLVQAGGSLRLSCAASGRTFDYNAMGWYRQAPGKEREFVAAITKSGGSTNYADSVKGRFTISRDNEKNTVYLQMNSLKPEDTAVYYCNATYVVIHEYDYWGQGTQVTVSS	low polyreactivity
QVQLQESGGGLVQAGGSMRLSCAASGSISELRPMGWYRQAPCKQRELDAGISTGGSTNYADSVKGRFTISRDNAKNTVYLQMNSLKPEDTAVYYCASASYGEGTYDYWGQGTQVTVRS	high polyreactivity
QVQLVESGGGLVQAGGSLRLSCAASGLILNYYTMGWYRQAPGKERELVATISSSTGSTYYADSVKGRFTISRDNAKNTVYLQMNSLKPEDTAVYYCAADHWSYWQIYDYWGQGTQVTVSS	low polyreactivity
QVQLVESGGGLVQAGGSLRLTCAASGGTLDYNAMGWYRQAPGKERELVAPISAGADGTYYADSVKGRFTISRDNAKNTVYLQMNSLKPEDSAVYYCAARPKNNWARTNFGIRYNDWGQGTQVTVSS	high polyreactivity
QVQLVESGGGLVQAGGSLRLSCAASGFTIWQNAMGWYRQAPGKERELVAGIRLSGGSTYADSVKGRFTISRDNAKNTVYLQMNSLKPEDTAVYYCAARIAGYYRYRYSYGYWGQGTQVTVSS	high polyreactivity
QVQLVESGGGLVQAGGSLRLSCAASGLIIWYYAMGWYRQAPGKERELVAAISRSGGRTYYADSVKGRFTISRDNAKNTVYLQMNSLKPEDTAVNYCNADVYRGYDYWGQGTQVTVSS	high polyreactivity
QVQLVESGGGLVQAGGSLRISCAASGRTFYTYDMGWYRQAPGKERQLVAAISSSGSTYYADSVKGRFTISRDNAKNTVYLQMNSLKPEDTAGYYCNARTSRYRRGGDSWGQGTQVTVSS	high polyreactivity
QDQLVESGGGLVQAGGSLRLSCAASGFTFGYYAMGWYRQAPGKERELVAAISSGSSTYYADSVKGRFTISRDNAKNTVDLQMISLTPEDTAVFYCAATGDNNTPSGYDYWGQGTQVTVSS	high polyreactivity
QVQLVESGGGLVQAGGSLRLSCAASGSTFEVYTMGWYRQAPGKARELVADITWSGGNTYYADSVKGRYTISRDNAKNTVYLQMNSLKPEDTAVYYCAVDGGEFSSYGYWGQGTQVTVSS	low polyreactivity
QVHLVESGGGLDQAGGSLRLICPASGLIFYRYAMGWYRQAPGKERELVAAITTNGARTYYADSVKGRFTISRDNAKNTVYLQMNSLIPEDTAVYYCAGYGAGKFWAEHNYWGQGTQVTVSS	high polyreactivity
QVQLVESGGGLVQAGGSLRLSCAASGSIFSTYAMGWYRQAPGKERELVAAINSGDSTSYADSVKGRFTISRDNAKNTVYLQMNSLKPEDTAVYYCAAKTGGYWYLRRTGRYESWGQGTQVTVSS	low polyreactivity
QVQLVESGGGLVQAGGSLRLSCAASGRIFTRYAMGWYRQAPGKERELVAAITYNGGSTYYADSVKGRFTISRDNAKNTVYLQMNSLKPEDTAVYYCNAVYLSWFGLYAGFDYWGQGTQVTVSS	high polyreactivity
QVQLVESGGGLVQAGGSLRLSCAASGYTFGVYVMGWYREAPGKERELVAAISGSTYYADSVKGRFTISRDNAKNTVYVQMNSLKPEDTAVYYCAAESYFFSPRTREKFDYWGQGTQVTVSS	low polyreactivity
QVQRVESGGGLVQAGGSLRLSCAASGSIFTGNAMGWYRQAPGKEREFVAAIRRSGA	low polyreactivity
QVQLVESGGGLVQAGGSLRLSCAASGITFYGYAMGWYRQAPGKERELVAAISGNGGRTYYADSVKGRFTISRDNAKNTVYLQMNSLKPEDTAVYYCNVKVRSRRTGDRYDYWGQGTQVTVSS	high polyreactivity
QVQLVESGVGLVQAGGSLRLICAASGSTFQPNVMGWYRQAPGKERELDAAIRGSSGNTYYADSVKGRFTISRDHAKNTVYLQMNSLKPEDTAVYYCAALFLFKTSSPYRYYYWGQGTQVTVSS	high polyreactivity
QVQLVESGGGLVQAGGSLRLSCAASGRTFTFYAMGWYRQAPGKERELVAAISTRGGRTYYADSVKGRFTISRDNAKNTVYLQMNSLKPEDTAVYYCAARARRRYYYWGQGTQVTVSS	high polyreactivity

Sequence	polyreactivity (PSR sort gate)
QVQLVESGGGLVQEGGSLRLSCAASGLIFSYYAMGWYRQAPGKERELVAAISWSGASTFYADSVKGRFTISRDNAKNTVYLQMNSLKPEDTAVYYCAADTYGKTYYYWGQGTLVTVSS	low polyreactivity
QVQLVESGGGLVQAGGSLRLSCAASGRTFAWYTMGWYRQAPGKERELVAAISGSGGSTYYADSVKGRFTISRDNAKNTVYLQMNSLKPEDTAVYYCSRRVDSYYGHTRYYYWGQGTQVTVSS	high polyreactivity
QVQLVESGGGLVQAGGSLRLSCAASGRIFPYNAMGWYRPAPGKEREFVAAITWSGGSTYYADSVKGRFTISRDNAKNTVYLQMNCLKPEDTAVYYCAIRYPWQYNYWGQGTQVTVSS	high polyreactivity
QVQLVESGGGLVQEGGSLRLSCAASGSTFEYNAMGWDRQAPGKEREFVAAISRTGSRTYYADSVKGRFTISRDNAKNTVFLQMNSLIPEDTAVYYCASVKSRLQVGYYSWGQGTQVTVSS	high polyreactivity
QVQLVESGGGLVQAGGSLRLSCAASGRIFDYYDLGWYRQAPRKERELVAAITSSGTSTYYADSVKGRFTISRDNAKNTVYLQMNSLKPEDTAVYYCNARSIRPWGENGYWGQGTQVTVSS	high polyreactivity
QVQLVESGGGLVQAGGSLRLSCAASGFTFGYYAMGWYRQAPGKERELVAAINWSGGRTYYADSVKGRFTISRDNAMNTVYLQMNRLKPEDTAVYYCAASSRTKRYYWGQGTQVTVSS	high polyreactivity
QDQHVESGGGLVQAGGSLRLSCAASGSTYRDNAMGWSRQAPGKERELVAAISVSGASTYYADSVKGRFTISRDNAKNTVYLQMNSLKPEDTAVYDCAKSLYQALSLSFFIFGYWGQGTQVTVSS	low polyreactivity
QDQLVETGGGLVQAGGSLRLSCAAYGSIFDLNAMGWYRQAPGKESELVAAITYSSGRTYYADSVKGRFTISRDNAKNTVYLQMNSLKPEDTAVYYCNADLWFHYYRYNYWGQGTQVTVSS	high polyreactivity
QVQLVESGGGLVQAGGSLRLSCAASGSILKPYAMRSYRQAPGKERELVAAISGTGGSTYYADSVKGRFTISRDNAKNTVYLQMNSLKPEDTAVYYCNADEFRYAFEYWGQGTQVTVSW	high polyreactivity
QVQLVESGGGLVQAGGSLRLSCAASGRTFWNYAMGWYRQAPGKERELVAVIRFSDGSTYYADSVKGRFTISRDNAKNTVYLQMNSLKPEDTAVYYCAAKGPRRWGSGFDYWGQATQVTVSS	low polyreactivity
QVHLVESGGGLVQAGGSLRLSCAASGSIFYWNAMGWYRQAPGKESELVATISSRGGRTSYADSVKGRFTLSRDNAKNTVYLQMNSLQPEDTAVDYCAKSIDGWYWRRRRYDYWGQGTQVTVSS	low polyreactivity
QVQLVESGGGLVQAGGSLRLSCAASGFTFTYNDMGWYRQAPGKEREFVAAISSTGGSTYYADSVKGRFTISRDNAKNTVYLQMNSLIPEDTAVYYCAAEDSWYWDAWFDYWGQGTQVTVSS	low polyreactivity
QVQLVESGGGIVQAGGSLRFSCAASGFTFWKYTRGWYRQAPGKERELVAAINGGGGDTYADSVKGRFTISRDNAKNTVYLQMNSLKPEDTAVYYCAARYGTGTTWVQPTEMDYWGQGTQVTVSL	low polyreactivity
QVQLVESGGGLVQAGGSLRLSCAASGRIFVTNDMGWYRQAPGKETELVAAINWNGDSTNYADSVKGRFTISRDNAKNTVYLQLNSLKPEDTAVYYCAAGWFTRDTLAGYDYWGKGTQVTVSS	low polyreactivity
QVQLVESGGGLVQAGGSLRLSCAASGSTFGYNAMGWYRQAPGKERELVAAITWTGASTYYADSVKGRFTISRDIAKNTVYLQMNSLKPEDTAVYYCNRVGYQSMNYWGQGTQVTVSS	low polyreactivity
QVQLVESPGGLDQAGGSLRLSGAASGSTLYDNAMGWYRQAPGKERELVAAISRSGGRTYYADSVKGRFTISRDNAKNTVYLHMNSLIPEDTAVYYCNAVVNGPGNYVTYDSWGQGTQVTVSS	high polyreactivity
QVQLVESGGGLLQAGGSLRLSCAASGRTIDVYAMGWYTQAPGKERELVAAISWSGGGTYYADSVKGRFTISRDNAKNTVYFQMHSLKAEDTAVYYCAAALTFALDPNRYTYSDYYYWGQGTQVTVSS	low polyreactivity
QVQLVESGGGLVQAGGSLRLSCAASGIIFDGNAMGWYRQAPGKERELVAAISSGGSTNYADSVKGRFTISRDNAKNTVYLQMNSLKPEDTAVYYCAARYTGKYEREYIYWGQGTQVTVSS	high polyreactivity
QVQLVESGGGLVQAGGSLRLSCAASGRTFDANAMGWYRPAPGKERELVAAISSDGSTNYADSVKGRFTISRDNAKNTVYLQMNSLKPEDTAVYYCATDGKPLIRYDYDYWGQGTQVTVSS	high polyreactivity
QVQLLESGGGLVQARGSLRLSCAASGRILEGYAMGWYRPAPGKERELVAALSFSTTPTYYADSVKGRFTISRDNAKNTVYLQMYSLKPEDTAVDYCAADSQQSDYDYWGQGSQVTVSS	high polyreactivity
QVHLVESGGGLVQAGGSLRLSCAASGLIFVDNAMGWYRQAPGKERELVAAIDSGGSTNYADSVKGRFTISRDNEKNTVYLQMNSLKTEDTAVYYCAADWIYAPWYYQECVEYYYWGQGTQVTVSS	low polyreactivity
